# Laboratory results reported in patent US20220153819A1 (Regeneron, published 2022).
# “And” between values parts separate entries of the source, which are not always exact repeats. Equal values may be shown once. Read-outs that look alike come from different tables or passages of the source.
# T1: CD20 on Raji cells (human, UniProt P11836 1-297)
# T1 sequence (looked up): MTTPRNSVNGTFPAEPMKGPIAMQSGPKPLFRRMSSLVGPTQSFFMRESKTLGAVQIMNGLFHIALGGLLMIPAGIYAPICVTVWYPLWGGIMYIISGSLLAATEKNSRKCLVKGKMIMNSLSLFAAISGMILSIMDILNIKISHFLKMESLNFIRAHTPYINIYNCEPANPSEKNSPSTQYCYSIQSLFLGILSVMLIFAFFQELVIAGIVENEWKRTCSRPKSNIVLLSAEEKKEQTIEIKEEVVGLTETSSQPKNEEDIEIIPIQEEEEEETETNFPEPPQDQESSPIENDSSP
# T2: hGITR.mmh (human)
# T2 chain: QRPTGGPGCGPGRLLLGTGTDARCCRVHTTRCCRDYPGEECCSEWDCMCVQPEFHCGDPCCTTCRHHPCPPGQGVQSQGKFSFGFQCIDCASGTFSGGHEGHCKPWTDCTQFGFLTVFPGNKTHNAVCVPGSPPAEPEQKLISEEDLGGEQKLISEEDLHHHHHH
# T3: human GITR on Jurkat/hGITR/hCD20 cells (human, UniProt Q9Y5U5 26-241)
# T3 sequence (looked up): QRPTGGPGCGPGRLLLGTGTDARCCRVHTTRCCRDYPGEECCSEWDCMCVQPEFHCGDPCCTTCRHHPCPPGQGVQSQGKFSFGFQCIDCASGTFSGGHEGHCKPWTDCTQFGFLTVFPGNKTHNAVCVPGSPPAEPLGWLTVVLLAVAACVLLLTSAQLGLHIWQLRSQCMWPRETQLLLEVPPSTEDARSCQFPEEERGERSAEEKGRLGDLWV
# T4: IsdA.6×(His) (Staphylococcus aureus, UniProt A6QG31 47-316)
# T4 sequence: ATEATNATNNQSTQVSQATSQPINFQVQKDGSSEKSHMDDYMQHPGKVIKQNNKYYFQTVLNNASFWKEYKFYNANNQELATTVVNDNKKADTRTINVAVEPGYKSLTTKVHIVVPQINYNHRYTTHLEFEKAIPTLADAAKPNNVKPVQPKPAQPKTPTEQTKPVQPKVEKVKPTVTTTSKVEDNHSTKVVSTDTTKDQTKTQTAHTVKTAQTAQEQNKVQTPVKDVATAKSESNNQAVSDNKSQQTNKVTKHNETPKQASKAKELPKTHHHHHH
# B1: REGN5409, anti-Psl x anti-C1q scFv bispecific antibody (bispecific antibody, human IgG1, lambda)
# heavy: not shown
# light: SSELTQDPAVSVALGQTVRITCQGDSLRSYYASWYQQKPGQAPVLVIYGKNNRPSGIPDRFSGSSSGNTASLTITGAQAEDEADYYCNSRDSSGNHVVFGGGTKLTVLGQPKAAPSVTLFPPSSEELQANKATLVCLISDFYPGAVTVAWKADSSPVKAGVETTTPSKQSNNKYAASSYLSLTPEQWKSHRSYSCQVTHEGSTVEKTVAPTECS
# scFv: not shown
# B2: mAb14303, anti-CD20 parental bivalent hIgG1 antibody (antibody, V domains shown)
# VH: QVHLVESGGGVVQPGRSLRLSCSVSGLTFNSYGMHWVRQAPGKGLEWVTMISYDGSDKYYLDSVKGRFTISRDNSKNILYLQINSLRPEDTAVYYCVNWDNWRGNFDYWGQGTLVTVSS
# VL: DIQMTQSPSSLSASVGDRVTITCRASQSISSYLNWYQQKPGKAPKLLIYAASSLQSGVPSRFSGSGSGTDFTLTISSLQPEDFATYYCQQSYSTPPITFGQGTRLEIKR
# B3: REGN5536, anti-PNAG x anti-C1q scFv bispecific antibody (bispecific antibody, human IgG1, lambda)
# heavy: not shown
# light: QLVLTQSPSASASLGASVKLTCTLSSGHSNYAIAWHQQQPGKGPRYLMKVNRDGSHIRGDGIPDRFSGSTSGAERYLTISSLQSEDEADYYCQTWGAGIRVFGGGTKLTVLGQPKAAPSVTLFPPSSEELQANKATLVCLISDFYPGAVTVAWKADSSPVKAGVETTTPSKQSNNKYAASSYLSLTPEQWKSHRSYSCQVTHEGSTVEKTVAPTECS
# scFv: not shown
# B4: parental bivalent anti-IsdB antibody (antibody, V domains shown)
# VH: EVQLVESGGGLVQPGRSLRLSCTTSGFTFDDYAMHWVRQVPGQGLEWVAGLSWNSDTIGYADSVKGRFTISRDNAKNSLYLQMKSLKAEDTALYYCTKDFYHSLNNWNYYYFDYWGQGTLVTVSS
# VL: not shown
# notes: also called anti-IsdB bival; bivalent IsdB antibody
# B5: mAb11829, parental anti-HA bivalent antibody (antibody, V domains shown)
# VH: QVHLVQSGPEVKKPGSSVKVSCKASGVTFISHAISWVRQAPGQGLEWVGGIIAIFGTTNYAQKFQGRVTVTTDKSTNTVYMELSRLRSEDTAIYYCARGETYYEGNFDFWGQGTLVTVSS
# VL: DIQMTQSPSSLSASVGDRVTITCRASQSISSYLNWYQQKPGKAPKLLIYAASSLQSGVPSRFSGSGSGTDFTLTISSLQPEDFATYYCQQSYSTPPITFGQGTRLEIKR
# notes: also called Flu A, group 1 HA; parental HA bivalent antibody
# B6: mAb27250, one-arm parental HA antibody (antibody, V domains shown)
# VH: B5 VH
# VL: not shown
# notes: also called Flu A, group 1, one arm
# B7: REGN6093, anti-Influenza HA x anti-C1q bispecific antibody (bispecific antibody, V domains shown)
# VH 1: B5 VH
# VH 2: EVQLVESGGGVVQPGGSLRLSCAASGFSLDDYAMHWVRQTPGKGLEWVSLISGDGSRTSYADSVKGRFTISRDNSKNSLYLKMNSLRTEDTALYYCTKDPHNSNWFDPWGQGTLVTVSS
# VL: not shown
# notes: also called FluA group 1 x C1q bispecific; anti-HA x anti-C1q
# B8: Rituximab (antibody, V domains shown)
# VH: QVQLQQPGAELVKPGASVKMSCKASGYTFTSYNMHWVKQTPGRGLEWIGAIYPGNGDTSYNQKFKGKATLTADKSSSTAYMQLSSLTSEDSAVYYCARSTYYGGDWYFNVWGAGTTVTVSA
# VL: QIVLSQSPAILSASPGEKVTMTCRASSSVSYIHWFQQKPGSSPKPWIYATSNLASGVPVRFSGSGSGTSYSLTISRVEAEDAATYYCQQWTSNPPTFGGGTKLEIK
# B9: REGN6545, anti-GITR x anti-C1q bispecific antibody (bispecific antibody, V domains shown)
# VH 1: QVQLQESGPGLVKPSETLSLTCIVSGGSISGYFWNWIRQPPGKGLEWIGYIYYSGTTIYNPSLKSRFTISLDTSKNQFSLKLTSVTAADTAVYYCARESYNPSPRYFDHWGQGTLVTVSS
# VH 2: B7 VH 2
# VL: not shown
# B10: REGN5177, anti-CD20 x anti-C1q bispecific antibody (bispecific antibody, V domains shown)
# VH 1: B2 VH
# VH 2: B7 VH 2
# VL: not shown
# B11: REGN5553, anti-IsdA x anti-C1q bispecific antibody (bispecific antibody, V domains shown)
# VH 1: EVQLVESGGGLVQPGRSLRVSCAASGFTFDDYAMHWVRQIPGKGLEWVSGIRWNSDTIGYADSVKGRFTISRDNAKNFLYLQMNSLRTEDTALYYCVKDMRVRGIIMYGMDVWGQGTTVTVSS
# VH 2: B7 VH 2
# VL: not shown
# notes: also called bsC1q × IsdA; bs hC1q × IsdA
# B12: REGN5372, anti-GITR bivalent hIgG1 antibody (antibody, V domains shown)
# VH: B9 VH 1
# VL: not shown
# Legend:
# [1] = target: T5, human complement component 1q (C1q) (human, UniProt P02745 23-245; P02746 28-253; P02747 29-245)
# T5 sequence (P02745 23-245, chain 1 of 3): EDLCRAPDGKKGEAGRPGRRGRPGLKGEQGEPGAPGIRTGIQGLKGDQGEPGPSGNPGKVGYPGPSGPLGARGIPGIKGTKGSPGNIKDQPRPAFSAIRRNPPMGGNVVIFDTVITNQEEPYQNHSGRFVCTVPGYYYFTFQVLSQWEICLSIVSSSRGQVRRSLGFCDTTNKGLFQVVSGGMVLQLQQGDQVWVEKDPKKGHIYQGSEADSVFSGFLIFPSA
# T5 sequence (P02746 28-253, chain 2 of 3): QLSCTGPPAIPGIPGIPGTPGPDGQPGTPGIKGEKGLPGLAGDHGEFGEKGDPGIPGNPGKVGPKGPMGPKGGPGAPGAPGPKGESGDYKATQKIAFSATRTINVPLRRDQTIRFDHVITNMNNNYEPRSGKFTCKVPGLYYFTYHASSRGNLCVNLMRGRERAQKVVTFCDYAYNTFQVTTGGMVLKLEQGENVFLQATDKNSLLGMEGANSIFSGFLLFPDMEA
# T5 sequence (P02747 29-245, chain 3 of 3): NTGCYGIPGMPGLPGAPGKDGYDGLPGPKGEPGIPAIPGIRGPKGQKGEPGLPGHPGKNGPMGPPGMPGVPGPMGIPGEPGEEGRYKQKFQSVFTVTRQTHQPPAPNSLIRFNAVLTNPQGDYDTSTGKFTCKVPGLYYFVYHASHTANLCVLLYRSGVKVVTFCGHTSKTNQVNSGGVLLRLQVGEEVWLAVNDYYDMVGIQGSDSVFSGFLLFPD
# biotinylated human C1q [2] = target: T6, biotinylated human C1q (human, UniProt P02745 23-245; P02746 28-253; P02747 29-245)
# T6 sequence (P02745 23-245, chain 1 of 3): as the sequence (P02745 23-245, chain 1 of 3) above
# T6 sequence (P02746 28-253, chain 2 of 3): as the sequence (P02746 28-253, chain 2 of 3) above
# T6 sequence (P02747 29-245, chain 3 of 3): as the sequence (P02747 29-245, chain 3 of 3) above
# biotinylated human C1q [3] = target: T6, biotinylated human C1q; remark: listed apart in the source
# [4] = target: T5, human complement component 1q (C1q); remark: listed apart in the source
# CD20 on Raji cells [5] = target: T1, CD20 on Raji cells
# CD20 on Raji cells [6] = target: T1, CD20 on Raji cells; remark: listed apart in the source
# [7] = target: T5, human complement component 1q (C1q); remark: listed apart in the source
# IsdB.6×(His) = IsdB.6×(His) (Staphylococcus aureus, UniProt A6QG30 41-613); test: SPR (Biacore T200), 37C; antibody captured, IsdB.6xHis injected
# [8] = target: T7, hemagglutinin (HA) on A/Puerto Rico/08/1934 (H1N1)-infected MDCK cells (Influenza A virus A/Puerto Rico/08/1934 …, UniProt P03452 18-565); test: cell-based or functional assay
# [9] = target: T7, hemagglutinin (HA) on A/Puerto …; test: cell ELISA on fixed A/Puerto Rico/08/1934 (H1N1)-infected MDCK cells
# [10] = target: T5, human complement component 1q (C1q); test: SPR (Biacore T200), 37C; bsAb captured via anti-human F(ab')2, hC1q injected
# biotinylated human C1q [11] = target: T6, biotinylated human C1q
# biotinylated human C1q [12] = target: T6, biotinylated human C1q; remark: listed apart in the source
# [13] = target: T5, human complement component 1q (C1q); test: SPR (Biacore T200), 25C; bsAb captured via anti-human F(ab')2, hC1q injected
# hGITR.mmh [14] = target: T2, hGITR.mmh
# [15] = target: T3, human GITR on Jurkat/hGITR/hCD20 cells
# hGITR.mmh [16] = target: T2, hGITR.mmh
# hGITR.mmh [17] = target: T2, hGITR.mmh
# IsdA.6×(His) = target: T4, IsdA.6×(His); test: SPR (Biacore), 37C; IsdA.6xHis captured, bsAb injected
binder,measurement,setting,value
B1,Kd,[1],2.41 nM
same,koff,[1],0.0116 s⁻¹
same,kon,[1],4.8e+06 M⁻¹ s⁻¹
same,Kd,biotinylated human C1q [2],343 nM
same,koff,biotinylated human C1q [2],0.0149 s⁻¹
same,kon,biotinylated human C1q [2],43500 M⁻¹ s⁻¹
same,Kd,biotinylated human C1q [3],431 nM
same,koff,biotinylated human C1q [3],0.0276 s⁻¹
same,kon,biotinylated human C1q [3],64000 M⁻¹ s⁻¹
same,Kd,[4],0.747 nM
same,koff,[4],0.00262 s⁻¹
same,kon,[4],3.51e+06 M⁻¹ s⁻¹
B2,EC50,CD20 on Raji cells [5],6.03 nM
same,EC50,CD20 on Raji cells [6],6.03 nM
B3,Kd,[7],0.632 nM
same,koff,[7],0.0102 s⁻¹
same,kon,[7],1.61e+07 M⁻¹ s⁻¹
B4,Kd,IsdB.6×(His),1.75 nM
same,T1/2,IsdB.6×(His),18 min
same,koff,IsdB.6×(His),0.00064 s⁻¹
same,kon,IsdB.6×(His),365000 M⁻¹ s⁻¹
B5,CDC EC50 (H1N1-infected MDCK cells),[8],20.8 nM
same,Maximum percent specific lysis (CDC of H1N1-infected MDCK cells),[8],35.8%
same,EC50,[9],1.46 nM
same,Maximum binding (RLUs),[9],788000 RLU
B6,CDC EC50 (H1N1-infected MDCK cells),[8],20.7 nM
same,Maximum percent specific lysis (CDC of H1N1-infected MDCK cells),[8],39%
same,EC50,[9],0.648 nM
same,Maximum binding (RLUs),[9],719000 RLU
B7,Kd,[10],1.11 nM
same,koff,[10],0.00401 s⁻¹
same,kon,[10],3.61e+06 M⁻¹ s⁻¹
same,t1/2,[10],2.9 min
same,Kd,biotinylated human C1q [11],327 nM
same,koff,biotinylated human C1q [11],0.0309 s⁻¹
same,kon,biotinylated human C1q [11],94600 M⁻¹ s⁻¹
same,t1/2,biotinylated human C1q [11],0.37 min
same,CDC EC50 (H1N1-infected MDCK cells),[8],10.5 nM
same,Maximum percent specific lysis (CDC of H1N1-infected MDCK cells),[8],30%
same,Kd,biotinylated human C1q [12],516 nM
same,koff,biotinylated human C1q [12],0.0937 s⁻¹
same,kon,biotinylated human C1q [12],182000 M⁻¹ s⁻¹
same,t1/2,biotinylated human C1q [12],0.12 min
same,EC50,[9],1.84 nM
same,Maximum binding (RLUs),[9],849000 RLU
same,Kd,[13],0.451 nM
same,koff,[13],0.00216 s⁻¹
same,kon,[13],4.8e+06 M⁻¹ s⁻¹
same,t1/2,[13],5.3 min
B8,EC50,CD20 on Raji cells [5],3.14 nM
same,EC50,CD20 on Raji cells [6],3.14 nM
B9,Kd,[1],1.74 nM
same,koff,[1],0.00582 s⁻¹
same,kon,[1],3.34e+06 M⁻¹ s⁻¹
same,Kd,biotinylated human C1q [2],3330 nM
same,koff,biotinylated human C1q [2],0.658 s⁻¹
same,kon,biotinylated human C1q [2],198000 M⁻¹ s⁻¹
same,kon,hGITR.mmh [14],330000 M⁻¹ s⁻¹ and 274000 M⁻¹ s⁻¹
same,EC50,[15],31 nM
same,Kd,biotinylated human C1q [3],1860 nM
same,koff,biotinylated human C1q [3],0.449 s⁻¹
same,kon,biotinylated human C1q [3],241000 M⁻¹ s⁻¹
same,Kd,[4],0.528 nM
same,koff,[4],0.00162 s⁻¹
same,kon,[4],3.07e+06 M⁻¹ s⁻¹
same,Kd,hGITR.mmh [16],7.38 nM
same,koff,hGITR.mmh [16],0.00795 s⁻¹
same,kon,hGITR.mmh [16],1.08e+06 M⁻¹ s⁻¹
same,Kd,hGITR.mmh [17],3.3 nM
same,koff,hGITR.mmh [17],0.00229 s⁻¹
same,kon,hGITR.mmh [17],693000 M⁻¹ s⁻¹
B10,Kd,[1],0.481 nM
same,koff,[1],0.00499 s⁻¹
same,kon,[1],1.04e+07 M⁻¹ s⁻¹
same,EC50,CD20 on Raji cells [5],35.6 nM
same,Kd,biotinylated human C1q [3],436 nM
same,koff,biotinylated human C1q [3],0.0442 s⁻¹
same,kon,biotinylated human C1q [3],101000 M⁻¹ s⁻¹
same,EC50,CD20 on Raji cells [6],35.7 nM
same,Kd,[4],0.688 nM
same,koff,[4],0.00224 s⁻¹
same,kon,[4],3.26e+06 M⁻¹ s⁻¹
B11,Kd,IsdA.6×(His),3.62 nM
same,T1/2,IsdA.6×(His),11.8 min
same,koff,IsdA.6×(His),0.000977 s⁻¹
same,kon,IsdA.6×(His),270000 M⁻¹ s⁻¹
same,Kd,[7],1.3 nM
same,koff,[7],0.00469 s⁻¹
same,kon,[7],3.62e+06 M⁻¹ s⁻¹
B12,EC50,[15],3.07 nM
